Test results from article doi:10.1101/2023.12.15.570541.

Target: MFSD1-strep (mouse Major Facilitator Superfamily Domain Containing 1 with N-terminal Twin-Streptavidin-tag) (mouse) (UniProt Q9DC37)
Assay: nanoDSF

UniProt Q9DC37, sequence (Q9DC37 whole entry, the tested form may be a part): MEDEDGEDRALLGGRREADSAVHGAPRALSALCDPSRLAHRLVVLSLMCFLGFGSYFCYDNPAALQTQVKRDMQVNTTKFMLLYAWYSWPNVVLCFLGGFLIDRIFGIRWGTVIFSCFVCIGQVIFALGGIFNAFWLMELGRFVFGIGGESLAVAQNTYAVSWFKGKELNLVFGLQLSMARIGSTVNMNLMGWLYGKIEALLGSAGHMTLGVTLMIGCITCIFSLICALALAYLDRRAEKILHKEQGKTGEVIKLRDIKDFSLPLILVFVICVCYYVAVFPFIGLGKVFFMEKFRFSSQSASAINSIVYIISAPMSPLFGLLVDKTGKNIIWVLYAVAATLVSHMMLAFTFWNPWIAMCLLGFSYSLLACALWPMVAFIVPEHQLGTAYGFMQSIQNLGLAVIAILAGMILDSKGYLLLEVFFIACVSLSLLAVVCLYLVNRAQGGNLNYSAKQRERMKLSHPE

In order of falling Kd:
1. His-Ala (peptide)  6700 µM
2. Lys-Val (peptide)  4300 µM
3. Leu-Ala (peptide)  2200 µM
4. His-Lys (peptide)  765 µM
5. Pro-Arg (peptide)  318 µM

In order of rising ΔTm:
1. His-Lys (peptide)  12 °C
2. Pro-Arg (peptide)  12.1 °C
3. Leu-Leu (peptide)  14 °C
